Source: PMC9482650, “Quantitative fragmentomics allow affinity mapping of interactomes” (Nature Communications, 2022)

T1: APBA1_2, Q02410
T1 sequence (Q02410 742-832, limits assumed, looked up): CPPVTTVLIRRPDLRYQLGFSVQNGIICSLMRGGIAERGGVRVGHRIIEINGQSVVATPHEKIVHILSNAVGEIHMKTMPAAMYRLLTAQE

T2: DLG3_3, Q92796
T2 sequence (Q92796 374-475, limits assumed, looked up): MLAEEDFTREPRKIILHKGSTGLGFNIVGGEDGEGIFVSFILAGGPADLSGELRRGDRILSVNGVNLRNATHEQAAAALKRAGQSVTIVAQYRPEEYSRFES

T3: HTRA3, P83110
T3 sequence (P83110 354-453, limits assumed, looked up): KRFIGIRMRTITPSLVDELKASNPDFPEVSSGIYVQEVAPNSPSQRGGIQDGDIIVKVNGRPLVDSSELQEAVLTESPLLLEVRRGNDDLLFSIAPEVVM

T4: LIN7B, Q9HAP6
T4 sequence (Q9HAP6 88-185, limits assumed, looked up): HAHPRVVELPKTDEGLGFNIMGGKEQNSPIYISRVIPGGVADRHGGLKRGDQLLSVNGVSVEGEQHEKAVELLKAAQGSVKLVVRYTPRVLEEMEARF

T5: LIN7C, Q9NUP9
T5 sequence (Q9NUP9 88-185, limits assumed, looked up): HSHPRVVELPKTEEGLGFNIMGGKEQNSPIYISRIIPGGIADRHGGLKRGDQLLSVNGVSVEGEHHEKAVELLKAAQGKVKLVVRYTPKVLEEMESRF

T6: NHERF3_3, Q5T2W1
T6 sequence (Q5T2W1 238-333, limits assumed, looked up): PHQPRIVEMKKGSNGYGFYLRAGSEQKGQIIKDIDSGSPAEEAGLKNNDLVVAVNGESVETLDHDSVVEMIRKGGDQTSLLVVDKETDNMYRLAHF

T7: RHPN1, Q8TCX5
T7 sequence (Q8TCX5 508-602, limits assumed, looked up): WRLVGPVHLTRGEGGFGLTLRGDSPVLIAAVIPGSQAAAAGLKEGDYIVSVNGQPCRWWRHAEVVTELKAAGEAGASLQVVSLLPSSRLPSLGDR

T8: SNTA1, Q13424
T8 sequence (Q13424 82-180, limits assumed, looked up): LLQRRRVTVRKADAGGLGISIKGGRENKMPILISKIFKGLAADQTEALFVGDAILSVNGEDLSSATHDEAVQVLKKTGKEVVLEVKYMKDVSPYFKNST


Key:
Test in all cases: holdup assay
Parameters in all cases: key: below the threshold = too weak to quantify, mostly under pKd 3.1 to 4
Details in all cases: plain residues with an end cap or a label only (N-terminal biotin on a linker: ado-ado)
[1] = target: T1, APBA1_2, Q02410
[2] = target: ARHGEF12, Q9NZN5-2
[3] = target: DLG1_1, Q12959
[4] = target: DLG2_2, Q15700
[5] = target: T2, DLG3_3, Q92796
[6] = target: DLG4_3, P78352
[7] = target: FRMPD2_1, Q68DX3
[8] = target: FRMPD2_2, Q68DX3
[9] = target: FRMPD3, Q5JV73
[10] = target: GOPC, Q9HD26
[11] = target: GORASP1, Q9BQQ3
[12] = target: GRIP2_3, Q9C0E4
[13] = target: T3, HTRA3, P83110
[14] = target: Inadl_1, Q8NI35
[15] = target: Inadl_10, Q8NI35
[16] = target: Inadl_4, Q8NI35
[17] = target: Inadl_6, Q8NI35
[18] = target: Inadl_8, Q8NI35
[19] = target: T4, LIN7B, Q9HAP6
[20] = target: T5, LIN7C, Q9NUP9
[21] = target: LNX1_2, Q8TBB1
[22] = target: LNX1_3, Q8TBB1
[23] = target: MAGI1_2, Q96QZ7
[24] = target: MAGI2_3, Q86UL8
[25] = target: MAGI3_2, Q5TCQ9
[26] = target: MAST2, Q6P0Q8
[27] = target: T6, NHERF3_3, Q5T2W1
[28] = target: NHERF4_4, Q86UT5
[29] = target: PARD3_3, Q8TEW0
[30] = target: T7, RHPN1, Q8TCX5
[31] = target: T8, SNTA1, Q13424

Sequence of FRMPD3, Q5JV73 (Q5JV73 12-100): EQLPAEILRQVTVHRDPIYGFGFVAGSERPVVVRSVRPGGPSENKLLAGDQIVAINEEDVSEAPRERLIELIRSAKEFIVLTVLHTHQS
Sequence of Inadl_10, Q8NI35 (Q8NI35 1673-1763): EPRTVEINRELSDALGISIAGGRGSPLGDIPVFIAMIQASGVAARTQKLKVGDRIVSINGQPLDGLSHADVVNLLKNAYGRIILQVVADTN
Sequence of Inadl_6, Q8NI35 (Q8NI35 1058-1167): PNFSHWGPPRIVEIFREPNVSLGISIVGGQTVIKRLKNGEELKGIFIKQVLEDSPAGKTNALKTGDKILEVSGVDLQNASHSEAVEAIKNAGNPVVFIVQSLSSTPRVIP
Sequence of MAGI1_2, Q96QZ7 (Q96QZ7 456-580): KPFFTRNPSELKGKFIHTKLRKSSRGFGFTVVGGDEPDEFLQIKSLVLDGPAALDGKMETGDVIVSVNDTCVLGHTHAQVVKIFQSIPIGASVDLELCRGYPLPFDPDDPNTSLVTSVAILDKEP
Sequence of DLG4_3, P78352 (P78352 306-403): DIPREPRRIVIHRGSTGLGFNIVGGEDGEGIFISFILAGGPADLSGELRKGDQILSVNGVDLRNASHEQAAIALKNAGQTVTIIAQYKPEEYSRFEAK
Sequence of Inadl_8, Q8NI35 (Q8NI35 1425-1530): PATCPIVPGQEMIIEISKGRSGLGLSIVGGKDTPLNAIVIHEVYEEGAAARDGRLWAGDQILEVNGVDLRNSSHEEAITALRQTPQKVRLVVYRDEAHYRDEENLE
Sequence of MAGI2_3, Q86UL8 (Q86UL8 600-682): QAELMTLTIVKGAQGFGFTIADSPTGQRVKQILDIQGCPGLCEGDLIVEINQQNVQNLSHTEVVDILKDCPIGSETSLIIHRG
Sequence of Inadl_1, Q8NI35 (Q8NI35 113-229): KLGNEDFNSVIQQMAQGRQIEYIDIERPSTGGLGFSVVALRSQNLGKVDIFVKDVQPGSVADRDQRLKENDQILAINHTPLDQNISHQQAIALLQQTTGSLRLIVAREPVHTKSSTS
Sequence of DLG2_2, Q15700 (Q15700 189-283): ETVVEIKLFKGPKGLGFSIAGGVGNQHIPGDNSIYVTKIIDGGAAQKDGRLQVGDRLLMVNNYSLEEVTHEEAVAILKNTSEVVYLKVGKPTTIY
Sequence of GORASP1, Q9BQQ3 (Q9BQQ3 1-208): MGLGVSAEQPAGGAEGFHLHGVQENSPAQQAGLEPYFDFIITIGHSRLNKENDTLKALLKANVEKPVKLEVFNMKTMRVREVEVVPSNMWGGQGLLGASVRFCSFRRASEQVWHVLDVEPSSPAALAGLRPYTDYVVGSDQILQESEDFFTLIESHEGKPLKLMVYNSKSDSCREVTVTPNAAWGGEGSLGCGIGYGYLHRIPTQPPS
Sequence of NHERF4_4, Q86UT5 (Q86UT5 464-550): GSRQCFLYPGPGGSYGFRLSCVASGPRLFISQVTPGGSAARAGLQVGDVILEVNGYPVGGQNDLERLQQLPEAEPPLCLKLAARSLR
Sequence of FRMPD2_2, Q68DX3 (Q68DX3 944-1038): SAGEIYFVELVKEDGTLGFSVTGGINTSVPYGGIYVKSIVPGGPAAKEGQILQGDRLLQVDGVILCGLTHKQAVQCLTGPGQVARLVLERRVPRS
Sequence of Inadl_4, Q8NI35 (Q8NI35 547-651): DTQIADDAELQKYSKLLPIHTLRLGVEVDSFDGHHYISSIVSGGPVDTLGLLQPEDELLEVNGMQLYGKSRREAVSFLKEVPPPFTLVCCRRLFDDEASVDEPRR
Sequence of FRMPD2_1, Q68DX3 (Q68DX3 770-861): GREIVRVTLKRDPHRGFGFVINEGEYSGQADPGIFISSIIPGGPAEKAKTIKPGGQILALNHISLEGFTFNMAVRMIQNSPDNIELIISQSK
Sequence of MAST2, Q6P0Q8 (Q6P0Q8 1099-1202): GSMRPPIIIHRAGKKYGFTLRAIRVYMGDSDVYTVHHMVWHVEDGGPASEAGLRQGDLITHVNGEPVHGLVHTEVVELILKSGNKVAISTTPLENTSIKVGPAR
Sequence of GRIP2_3, Q9C0E4 (Q9C0E4 238-339): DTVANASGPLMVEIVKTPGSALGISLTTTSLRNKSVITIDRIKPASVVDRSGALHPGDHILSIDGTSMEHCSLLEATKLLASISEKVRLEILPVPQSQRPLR
Sequence of ARHGEF12, Q9NZN5-2 (Q9NZN5 other isoform, or with tags, fused parts or gaps): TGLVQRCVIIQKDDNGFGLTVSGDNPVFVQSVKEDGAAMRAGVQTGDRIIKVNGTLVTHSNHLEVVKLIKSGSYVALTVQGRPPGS
Sequence of MAGI3_2, Q5TCQ9 (Q5TCQ9 398-503): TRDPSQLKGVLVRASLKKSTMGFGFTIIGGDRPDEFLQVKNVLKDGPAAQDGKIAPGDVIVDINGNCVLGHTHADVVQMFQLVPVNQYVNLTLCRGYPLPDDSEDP
Sequence of PARD3_3, Q8TEW0 (Q8TEW0 582-685): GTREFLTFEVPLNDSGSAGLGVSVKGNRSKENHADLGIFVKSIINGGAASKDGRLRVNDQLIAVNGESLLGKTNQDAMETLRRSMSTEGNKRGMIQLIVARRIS
Sequence of LNX1_2, Q8TBB1 (Q8TBB1 371-470): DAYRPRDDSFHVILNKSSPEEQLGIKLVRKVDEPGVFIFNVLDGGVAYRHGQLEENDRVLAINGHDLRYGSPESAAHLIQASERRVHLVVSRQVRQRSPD
Sequence of LNX1_3, Q8TBB1 (Q8TBB1 500-596): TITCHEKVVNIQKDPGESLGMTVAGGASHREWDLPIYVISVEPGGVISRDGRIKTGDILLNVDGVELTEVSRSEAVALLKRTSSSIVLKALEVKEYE

| Binder | pKd [1] | pKd [2] | pKd [3] | pKd [4] | pKd [5] | pKd [6] | pKd [7] | pKd [8] | pKd [9] | pKd [10] | pKd [11] | pKd [12] | pKd [13] | pKd [14] | pKd [15] | pKd [16] | pKd [17] | pKd [18] | pKd [19] | pKd [20] | also measured |
| --- | --- | --- | --- | --- | --- | --- | --- | --- | --- | --- | --- | --- | --- | --- | --- | --- | --- | --- | --- | --- | --- |
| VISSDDLTEL [CAPN6, Q9Y6Q1] | 3.79 | 4.91 | below the threshold | below the threshold | below the threshold | below the threshold | below the threshold | below the threshold | 3.63 | below the threshold | below the threshold | below the threshold | below the threshold | below the threshold | below the threshold | below the threshold | below the threshold | below the threshold | 3.56 | below the threshold | pKd [21]: below the threshold; pKd [22]: below the threshold; pKd [23]: below the threshold; pKd [24]: 3.68; pKd [25]: below the threshold; pKd [26]: 5.67; pKd [27]: below the threshold; pKd [28]: below the threshold; pKd [29]: 3.84; pKd [30]: 4.5; pKd [31]: below the threshold |
| RGKNRRQSIF [CDK18, Q07002] | 3.47 | below the threshold | below the threshold | 3.5 | 3.71 | 3.7 | 3.5 | below the threshold | below the threshold | below the threshold | below the threshold | below the threshold | below the threshold | below the threshold | below the threshold | below the threshold | below the threshold | below the threshold | 4.03 | 3.5 | pKd [21]: below the threshold; pKd [22]: below the threshold; pKd [23]: 3.91; pKd [24]: 3.64; pKd [25]: below the threshold; pKd [26]: 4.34; pKd [27]: below the threshold; pKd [28]: below the threshold; pKd [29]: below the threshold; pKd [30]: 3.58; pKd [31]: below the threshold |
| NKSEPFLTWL [WWTR1, Q9GZV5] | 4.89 | 4.95 | below the threshold | below the threshold | below the threshold | below the threshold | below the threshold | 4.29 | 4.26 | 4.16 | 5 | below the threshold | 5.43 | 4.52 | 4.63 | below the threshold | 5.68 | below the threshold | below the threshold | 3.58 | pKd [21]: below the threshold; pKd [22]: below the threshold; pKd [23]: 3.51; pKd [24]: 3.48; pKd [25]: 3.89; pKd [26]: 5.65; pKd [27]: 4.12; pKd [28]: 4.21; pKd [29]: 4.78; pKd [30]: 4.64; pKd [31]: below the threshold |
